IC50 (read off the curve) data for 1 substance are collected here from patent publication US20180326085A1.

The target in this test is biotinylated recombinant human c-MET ECD (HGFR extracellular domain) (human) (UniProt P08581). In words: HGF competition ELISA: HGF on the plate, biotinylated c-MET ECD pre-incubated with the antibody; blocked ligand HGF. For orientation: ELISA stands for enzyme-linked immunosorbent assay.

In the case of 224G11 (antibody), the IC50 (read off the curve) worked out at 3 nM.
